Results reported in patent US20050106653A1.

Tests used:
[1] = target: regulatory p85α subunit of bovine PI 3-kinase (bovine) (UniProt P23727); experiment: SPR competition: 100 nM p85α with soluble peptide over the same peptide immobilised
[2] = target: regulatory p85α subunit of bovine PI 3-kinase (bovine) (UniProt P23727); experiment: SPR (Biacore) competition: 100 nM p85α preincubated with soluble peptide, injected over the same peptide immobilised; two site competition fit, first value
[3] = target: regulatory p85α subunit of bovine PI 3-kinase (bovine) (UniProt P23727); experiment: SPR (Biacore) competition: 100 nM p85α preincubated with soluble peptide, injected over the same peptide immobilised; two site competition fit, second value
[4] = target: rIRS-1 449-664 GST fusion protein preincubated with PKC from rat brain (PKC-rb), then tyrosine phosphorylated by insulin receptor (rat) (UniProt P35570); experiment: cell-based or functional assay
[5] = target: rIRS-1 449-664 S570A GST fusion protein preincubated with PKC-ζ, then tyrosine phosphorylated by insulin receptor (rat) (UniProt P35570); experiment: cell-based or functional assay
[6] = target: rIRS-1 449-664 GST fusion protein preincubated with PKC-ζ, then tyrosine phosphorylated by insulin receptor (rat) (UniProt P35570); experiment: cell-based or functional assay
[7] = target: GST fusion protein containing amino acids 449-664 of rat IRS-1 (rIRS-1 449-664), no PKC pretreatment (rat) (UniProt P35570); experiment: cell-based or functional assay
[8] = target: rIRS-1 449-664 S612A GST fusion protein preincubated with PKC-ζ, then tyrosine phosphorylated by insulin receptor (rat) (UniProt P35570); experiment: cell-based or functional assay
[9] = target: rIRS-1 449-664 GST fusion protein preincubated with PKC-ζ, then tyrosine phosphorylated by insulin receptor (rat) (UniProt P35570); experiment: GST pull-down and immunoblot; against insulin-stimulated rIRS-1 449-664 without PKC-ζ set as 100%
[10] = target: rIRS-1 449-664 S570A GST fusion protein preincubated with PKC-ζ, then tyrosine phosphorylated by insulin receptor (rat) (UniProt P35570); experiment: GST pull-down and immunoblot; against the insulin-stimulated control without PKC-ζ set as 100%
[11] = target: rIRS-1 449-664 S612A GST fusion protein preincubated with PKC-ζ, then tyrosine phosphorylated by insulin receptor (rat) (UniProt P35570); experiment: as above
[12] = target: rIRS-1 449-664 GST fusion protein preincubated with PKC from rat brain (PKC-rb), then tyrosine phosphorylated by insulin receptor (rat) (UniProt P35570); experiment: GST pull-down and immunoblot; against insulin-stimulated rIRS-1 449-664 without PKC set as 100%
[13] = target: T1, GST fusion protein containing amino acids 449-664 of rat IRS-1 (rIRS-1 449-664), no PKC pretreatment
T1 chain: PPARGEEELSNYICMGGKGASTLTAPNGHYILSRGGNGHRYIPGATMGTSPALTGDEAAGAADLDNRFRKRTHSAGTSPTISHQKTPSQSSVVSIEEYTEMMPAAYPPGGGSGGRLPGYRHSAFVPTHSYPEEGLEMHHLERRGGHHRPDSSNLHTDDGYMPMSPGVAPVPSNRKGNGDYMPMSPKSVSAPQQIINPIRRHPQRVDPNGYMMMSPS

Sequence of regulatory p85α subunit of bovine PI 3-kinase (bovine) (P23727 whole entry, the tested form may be a part): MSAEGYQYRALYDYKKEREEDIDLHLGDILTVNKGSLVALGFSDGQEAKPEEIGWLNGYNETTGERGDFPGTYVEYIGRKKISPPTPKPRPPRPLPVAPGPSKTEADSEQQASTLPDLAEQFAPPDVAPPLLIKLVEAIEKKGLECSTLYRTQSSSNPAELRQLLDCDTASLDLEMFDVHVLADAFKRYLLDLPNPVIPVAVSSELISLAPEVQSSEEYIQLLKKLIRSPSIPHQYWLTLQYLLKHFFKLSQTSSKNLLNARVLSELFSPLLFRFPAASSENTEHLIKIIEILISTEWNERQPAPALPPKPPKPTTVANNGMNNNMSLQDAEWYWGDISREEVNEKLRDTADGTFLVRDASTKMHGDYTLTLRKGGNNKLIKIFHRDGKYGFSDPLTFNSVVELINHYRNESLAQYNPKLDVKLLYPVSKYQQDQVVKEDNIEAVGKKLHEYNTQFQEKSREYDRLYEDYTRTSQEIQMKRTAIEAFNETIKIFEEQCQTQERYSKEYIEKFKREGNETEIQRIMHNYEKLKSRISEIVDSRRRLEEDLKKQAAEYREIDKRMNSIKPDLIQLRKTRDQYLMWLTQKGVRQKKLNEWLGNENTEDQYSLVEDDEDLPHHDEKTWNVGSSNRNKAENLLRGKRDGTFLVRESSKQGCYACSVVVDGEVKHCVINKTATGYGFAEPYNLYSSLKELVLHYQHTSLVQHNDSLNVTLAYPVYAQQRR

## IRS-1 peptide pY608 (DDGpYMPMSPGV), amino acids 605 to 615 of rat IRS-1 with phosphotyrosine 608
[1]
  peptide concentration for complete inhibition: 10 µM
[2]
  IC50: 260 nM
[3]
  IC50: 16600 nM

## insulin receptor, WGA-purified from rat liver, insulin-stimulated and autophosphorylated (from UniProt P15127 27-1383)
[4]
  reduction of insulin-stimulated tyrosine phosphorylation: 27%
[5]
  reduction of tyrosine phosphorylation by IR after PKC-ζ pretreatment: 30 to 40%
[6]
  inhibition of tyrosine phosphorylation: 46%
  reduction of tyrosine phosphorylation by IR after PKC-ζ pretreatment: 30 to 40%
[7]
  insulin-stimulated tyrosine phosphorylation of rIRS-1^449-664, fold over basal: 8.8 fold
[8]
  reduction of tyrosine phosphorylation by IR after PKC-ζ pretreatment: 30 to 40%

## regulatory p85α subunit of bovine PI 3-kinase (from UniProt P23727 1-724)
[9]
  inhibition of p85α binding: 81%
[10]
  p85α binding, % of control: 43 % of control
[11]
  p85α binding, % of control: 28 % of control
[12]
  inhibition of the association of p85α: 49%

## IRS-1 peptide pY608-pS612 (DDGpYMPMpSPGV), amino acids 605 to 615 of rat IRS-1 with phosphotyrosine 608 and phosphoserine 612
[1]
  peptide concentration for complete inhibition: 10 µM
[2]
  IC50: 150 nM
[3]
  IC50: 2880 nM

B1: recombinant human protein kinase C-ζ (protein)
chain: MPSRTGPKMEGSGGRVRLKAHYGGDIFITSVDAATTFEELCEEVRDMCRLHQQHPLTLKWVDSEGDPCTVSSQMELEEAFRLARQCRDEGLIIHVFPSTPEQPGLPCPGEDKSIYRRGARRWRKLYRANGHLFQAKRFNRRAYCGQCSERIWGLARQGYRCINCKLLVHKRCHGLVPLTCRKHMDSVMPSQEPPVDDKNEDADLPSEETDGIAYISSSRKHDSIKDDSEDLKPVIDGMDGIKISQGLGLQDFDLIRVIGRGSYAKVLLVRLKKNDQIYAMKVVKKELVHDDEDIDWVQTEKHVFEQASSNPFLVGLHSCFQTTSRLFLVIEYVNGGDLMFHMQRQRKLPEEHARFYAAEICIALNFLHERGIIYRDLKLDNVLLDADGHIKLTDYGMCKEGLGPGDTTSTFCGTPNYIAPEILRGEEYGFSVDWWALGVLMFEMMAGRSPFDIITDNPDMNTEDYLFQVILEKPIRIPRFLSVKASHVLKGFLNKDPKERLGCRPQTGFSDIKSHAFFRSIDWDLLEKKQALPPFQPQITDDYGLDNFDTQFTSEPVQLTPDDEDAIKRIDQSEFEGFEYINPLLLSTEESV
[13]
  32P incorporation, SDS-PAGE and autoradiography: a prominent phosphorylation of rIRS-1^449-664 by PKC became detectable
  phosphopeptide mapping by HPLC of wild type and S570A: serine 570 of IRS-1 is a novel phosphorylation site targeted by PKC-ζ
